{
  "source": "patent US20260115256A1",
  "about": "(HANGZHOU SCIWIND BIOSCIENCES, published 2026)",
  "note": "*1 amine or outer side, *2 acyl side, *3 side chain or, on linkers, in order; H or OH if unused. Bridges are numbered along the chain shown (N, C = ends). Where no end group is shown, it is not given here. Side-chain parts run from the residue outwards. [ ]: non-standard residue; d: D form. The star is where a group is joined. C20 diacid = O=C(O)CCCCCCCCCCCCCCCCCCC(=O)*; C18 diacid = O=C(O)CCCCCCCCCCCCCCCCC(=O)*; γGlu = O=C(O)[C@H](CCC(=O)[*:2])N[*:1]; Hyp = O=C(O)[C@@H]1C[C@@H](O)CN1; hArg = N=C(N)NCCCC[C@H](N)C(=O)O; Orn = NCCC[C@H](N)C(=O)O; Dab = NCC[C@H](N)C(=O)O; Dap = NC[C@H](N)C(=O)O; AEEA = NCCOCCOCC(=O)O",
  "data": [
    {"target": "T1, human amylin receptor (AMY3) on CHO-K1/Ga15/AMY3 cells (human, UniProt P30988 25-474; O60896 24-148)", "T1 sequence (looked up) 1": "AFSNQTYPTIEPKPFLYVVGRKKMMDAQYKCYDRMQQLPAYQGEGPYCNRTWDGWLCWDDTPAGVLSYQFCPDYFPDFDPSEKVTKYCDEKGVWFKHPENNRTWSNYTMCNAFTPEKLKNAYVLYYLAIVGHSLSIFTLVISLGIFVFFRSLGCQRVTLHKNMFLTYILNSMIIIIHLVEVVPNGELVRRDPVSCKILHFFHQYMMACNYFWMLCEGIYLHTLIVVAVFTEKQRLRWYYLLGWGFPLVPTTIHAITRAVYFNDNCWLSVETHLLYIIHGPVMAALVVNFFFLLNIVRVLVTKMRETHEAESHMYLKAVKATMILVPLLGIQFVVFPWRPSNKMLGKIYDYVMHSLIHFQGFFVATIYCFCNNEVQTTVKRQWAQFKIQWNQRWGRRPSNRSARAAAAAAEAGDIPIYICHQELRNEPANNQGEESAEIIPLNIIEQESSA", "T1 sequence (looked up) 2": "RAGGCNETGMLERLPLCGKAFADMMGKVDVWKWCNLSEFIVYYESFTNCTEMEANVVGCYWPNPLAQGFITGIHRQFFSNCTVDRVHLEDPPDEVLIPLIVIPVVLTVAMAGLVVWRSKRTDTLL", "assay": "cell-based or functional assay", "units": {"EC50, CRE-luciferase assay": "nM"}, "values": [
      {"binder": "RCNTATCATQRLADFLRHSSNNK([AEEA-AEEA-γGlu-C18 diacid])GPILPPTNVGSNT[Hyp]-NH2 (disulfide 2-7 (inferred))", "note": "[PD085]", "EC50, CRE-luciferase assay": 0.005},
      {"binder": "RCNTATCATQRLADFLRHK([γGlu-C20 diacid])SNNLGPILPPTNVGSNT[Hyp]-NH2 (disulfide 2-7 (inferred))", "note": "[PD098]", "EC50, CRE-luciferase assay": 0.077},
      {"binder": "RCNTATCATQRLAEFLRHSSNK([γGlu-C20 diacid])LGPILPPTNVGSNTP-NH2 (disulfide 2-7 (inferred))", "note": "[PD007]", "EC50, CRE-luciferase assay": 0.205},
      {"binder": "[Dab]CNTATCATQRLADFLRHSSNNLK([γGlu-C20 diacid])PILPPTNVGSNT[Hyp]-NH2 (disulfide 2-7 (inferred))", "note": "[PD074]", "EC50, CRE-luciferase assay": 0.066},
      {"binder": "HCNTATCATQRLADFLRHSSNNLK([γGlu-C20 diacid])PILPPTNVGSNT[Hyp]-NH2 (disulfide 2-7 (inferred))", "note": "[PD078]", "EC50, CRE-luciferase assay": 0.035},
      {"binder": "RCNTATCATQRLADFLRHSK([AEEA-AEEA-γGlu-C18 diacid])NNLGPILPPTNVGSNT[Hyp]-NH2 (disulfide 2-7 (inferred))", "note": "[PD097]", "EC50, CRE-luciferase assay": 0.014},
      {"binder": "ECNTATCATQRLADFLRHSSNNLK([γGlu-C20 diacid])PILPPTNVGSNT[Hyp]-NH2 (disulfide 2-7 (inferred))", "note": "[PD080]", "EC50, CRE-luciferase assay": 0.11},
      {"binder": "RCNTATCATQRLADFLRHSSNNK([γGlu-C18 diacid])GPILPPTNVGSNT[Hyp]-NH2 (disulfide 2-7 (inferred))", "note": "[PD084]", "EC50, CRE-luciferase assay": 0.008},
      {"binder": "[Dap]CNTATCATQRLADFLRHSSNNLK([γGlu-C20 diacid])PILPPTNVGSNT[Hyp]-NH2 (disulfide 2-7 (inferred))", "note": "[PD073]", "EC50, CRE-luciferase assay": 0.063},
      {"binder": "RCNTATCATQRLADFLRHSSNNK([AEEA-AEEA-γGlu-C20 diacid])GPILPPTNVGSNT[Hyp]-NH2 (disulfide 2-7 (inferred))", "note": "[PD083]", "EC50, CRE-luciferase assay": 0.037},
      {"binder": "RCNTATCATQRLADFLRHSSK([AEEA-AEEA-γGlu-C18 diacid])NLGPILPPTNVGSNT[Hyp]-NH2 (disulfide 2-7 (inferred))", "note": "[PD093]", "EC50, CRE-luciferase assay": 0.019},
      {"binder": "{C20 diacid-γGlu}-KCNTATCATQRLADFLRHSSNNLGPILPPTNVGSNT[Hyp]-NH2 (disulfide 2-7 (inferred))", "note": "[PD069]", "EC50, CRE-luciferase assay": 0.039},
      {"binder": "RCNTATCATQRLADFLRHSSK([γGlu-C18 diacid])NLGPILPPTNVGSNT[Hyp]-NH2 (disulfide 2-7 (inferred))", "note": "[PD092]", "EC50, CRE-luciferase assay": 0.016},
      {"binder": "RCNTATCATQRLADFLRHSSNK([γGlu-C18 diacid])LGPILPPTNVGSNT[Hyp]-NH2 (disulfide 2-7 (inferred))", "note": "[PD088]", "EC50, CRE-luciferase assay": 0.013},
      {"binder": "K([γGlu-C20 diacid])CNTATCATQRLADFLRHSSNNLGPILPPTNVGSNT[Hyp]-NH2 (disulfide 2-7 (inferred))", "note": "[PD070]", "EC50, CRE-luciferase assay": 0.038},
      {"binder": "{C20 diacid-γGlu}-KCNTATCATQRLADFLRHSSNNLKPILPPTNVGSNT[Hyp]-NH2 (disulfide 2-7 (inferred))", "note": "[PD071]", "EC50, CRE-luciferase assay": 0.028},
      {"binder": "RCNTATCATQRLADFLRHSSNK([AEEA-AEEA-γGlu-C18 diacid])LGPILPPTNVGSNT[Hyp]-NH2 (disulfide 2-7 (inferred))", "note": "[PD089]", "EC50, CRE-luciferase assay": 0.018},
      {"binder": "RCNTATCATQRLADFLRHSK([γGlu-C18 diacid])NNLGPILPPTNVGSNT[Hyp]-NH2 (disulfide 2-7 (inferred))", "note": "[PD096]", "EC50, CRE-luciferase assay": 0.042},
      {"binder": "RCNTATCATQRLADFLRHSSNK([AEEA-AEEA-γGlu-C20 diacid])LGPILPPTNVGSNT[Hyp]-NH2 (disulfide 2-7 (inferred))", "note": "[PD087]", "EC50, CRE-luciferase assay": 0.032},
      {"binder": "RCNTATCATQRLADFLRHSSK([γGlu-C20 diacid])NLGPILPPTNVGSNT[Hyp]-NH2 (disulfide 2-7 (inferred))", "note": "[PD090]", "EC50, CRE-luciferase assay": 0.031},
      {"binder": "K([γGlu-C20 diacid])CNTATCATQRLADFLRHSSNNLKPILPPTNVGSNT[Hyp]-NH2 (disulfide 2-7 (inferred))", "note": "[PD072]", "EC50, CRE-luciferase assay": 0.027},
      {"binder": "RCNTATCATQRLAEFLRHSSNNLK([AEEA-AEEA-γGlu-C20 diacid])PILPPTNVGSNTP-NH2 (disulfide 2-7 (inferred))", "note": "[PD004]", "EC50, CRE-luciferase assay": 0.102},
      {"binder": "RCNTATCATQRLAEFLRHSSK([γGlu-C20 diacid])NLGPILPPTNVGSNTP-NH2 (disulfide 2-7 (inferred))", "note": "[PD006]", "EC50, CRE-luciferase assay": 0.129},
      {"binder": "RCNTATCATQRLADFLRHSSNNLK([AEEA-AEEA-γGlu-C20 diacid])PILPPTNVGSNT[Hyp]-NH2 (disulfide 2-7 (inferred))", "note": "[PD081]", "EC50, CRE-luciferase assay": 0.031},
      {"binder": "RCNTATCATQRLADFLRHSK([AEEA-AEEA-γGlu-C20 diacid])NNLGPILPPTNVGSNT[Hyp]-NH2 (disulfide 2-7 (inferred))", "note": "[PD095]", "EC50, CRE-luciferase assay": 0.047},
      {"binder": "[hArg]CNTATCATQRLADFLRHSSNNLK([γGlu-C20 diacid])PILPPTNVGSNT[Hyp]-NH2 (disulfide 2-7 (inferred))", "note": "[PD077]", "EC50, CRE-luciferase assay": 0.034},
      {"binder": "RCNTATCATQRLADFLRHK([AEEA-AEEA-γGlu-C20 diacid])SNNLGPILPPTNVGSNT[Hyp]-NH2 (disulfide 2-7 (inferred))", "note": "[PD099]", "EC50, CRE-luciferase assay": 0.033},
      {"binder": "KCNTATCATQRLADFLRHSSNNLK([γGlu-C20 diacid])PILPPTNVGSNT[Hyp]-NH2 (disulfide 2-7 (inferred))", "note": "[PD076]", "EC50, CRE-luciferase assay": 0.04},
      {"binder": "RCNTATCATQRLADFLRHSK([γGlu-C20 diacid])NNLGPILPPTNVGSNT[Hyp]-NH2 (disulfide 2-7 (inferred))", "note": "[PD094]", "EC50, CRE-luciferase assay": 0.034},
      {"binder": "[Orn]CNTATCATQRLADFLRHSSNNLK([γGlu-C20 diacid])PILPPTNVGSNT[Hyp]-NH2 (disulfide 2-7 (inferred))", "note": "[PD075]", "EC50, CRE-luciferase assay": 0.048},
      {"binder": "RCNTATCATQRLADFLRHSSNK([γGlu-C20 diacid])LGPILPPTNVGSNT[Hyp]-NH2 (disulfide 2-7 (inferred))", "note": "[PD086]", "EC50, CRE-luciferase assay": 0.033},
      {"binder": "DCNTATCATQRLADFLRHSSNNLK([γGlu-C20 diacid])PILPPTNVGSNT[Hyp]-NH2 (disulfide 2-7 (inferred))", "note": "[PD079]", "EC50, CRE-luciferase assay": 0.131},
      {"binder": "RCNTATCATQRLADFLRHSSNNK([γGlu-C20 diacid])GPILPPTNVGSNT[Hyp]-NH2 (disulfide 2-7 (inferred))", "note": "[PD082]", "EC50, CRE-luciferase assay": 0.038},
      {"binder": "RCNTATCATQRLADFLRHSSK([AEEA-AEEA-γGlu-C20 diacid])NLGPILPPTNVGSNT[Hyp]-NH2 (disulfide 2-7 (inferred))", "note": "[PD091]", "EC50, CRE-luciferase assay": 0.03}
    ]}
  ]
}
